B1: Staphylokinase (Staphylococcus aureus (strain N315)), Q99SU7 (parent)
chain: MLKRSLLFLTVLLLLFSFSSITNEVSASSSFDKGKYKKGDDASYFEPTGPYLMVNVTGVDSKGNELLSPHYVEFPIKPGTTLTKEKIEYYVEWALDATAYKEFRVVELDPSAKIEVTYYDKNKKKEETKSFPITEKGFVVPDLSEHIKNPGFNLITKVVIEKK

Variants of: B1
Settings: with plmn_human PLG

| Variant | effect of a mutation on the interaction |
| --- | --- |
| V72A | disrupting interaction |

Variants of: B1
Settings: with plmn_human PLG
Remark: another data set of the same source

| Variant | effect of a mutation on the interaction |
| --- | --- |
| V72A | decreasing interaction |

Variants of: B1
Settings: with plmn_human PLG
Remark: another data set of the same source

| Variant | effect of a mutation on the interaction |
| --- | --- |
| V72Y | decreasing interaction |

Variants of: B1
Settings: with plmn_human PLG
Remark: another data set of the same source

| Variant | effect of a mutation on the interaction |
| --- | --- |
| V72F | decreasing interaction |
| Y71F | decreasing interaction |

Variants of: B1
Settings: with plmn_human PLG
Remark: another data set of the same source

| Variant | effect of a mutation on the interaction |
| --- | --- |
| P69L | disrupting interaction |

Variants of: B1
Settings: with plmn_human PLG
Remark: another data set of the same source

| Variant | effect of a mutation on the interaction |
| --- | --- |
| P69L | decreasing interaction |
